The text below walks through data of patent US20220220215A1 (CRESCENDO BIOLOGICS, published 2022).

Sequences and labels used below:
B1: TPP-950: PDA2-6GS-172E1-13-6GS-HSA2-His (bispecific antibody)
chain: EVQLVESGGGVVRPGGSLRLSCAASGFTFDDYAMSWVRQAPGKGLEWVSGITWNAGSTGYADSVKGRFTISRDNAKNSLYLQMNSLRAEDTALYYCVRDKYSYAWSYDDFDIWGQGTMVTVSSGGGGSGGGGSGGGGSGGGGSGGGGSGGGGSEVQLVESGGGVVQPGGSLRLSCAASGFTFSNYGMHWVRQAPGKGLEWVAVISNDGNTKTYADSVKGRFTISRDNSKNTLYLQMNSLRAEDTAVYYCAQDETTTVTASYYFDYWGQGTLVTVSSGGGGSGGGGSGGGGSGGGGSGGGGSGGGGSEVQLVESGGGLVKPGGSLRLSCAASGFTFSNYNMNWVRQAPGKGLEWVSSISSAGTHIYYADSVKGRFTISRDNAKNSLYLQMNSLRAEDTAVYYCARDPHSTGWYKDFDYWGQGTLVTVSSAAAHHHHHH
B2: TPP-1409 CD137A-1GS-HSA2-1GS-PD138G7(G109D) (bispecific antibody)
chain: EVQLVESGGGLVQPGGSLRLSCAASGFTLSNYWMNWVRQAPGKGLEWVANINQDGSERYYVDSVKGRFTISRDNAKNSLYLQMNSLRAEDTAVYYCARGGEGYGVDHYGLDVSGQGTTVTVSSGGGGSEVQLVESGGGLVKPGGSLRLSCAASGFTFSNYNMNWVRQAPGKGLEWVSSISSAGTHIYYADSVKGRFTISRDNAKNSLYLQMNSLRAEDTAVYYCARDPHSTGWYKDFDYWGQGTLVTVSSGGGGSEVQLVESGGGVVRPGGSLRLSCAASGFTFDDYAMSWVRQAPGKGLEWVSGITWNGGSTGYADSVKDRFTISRDNAKNSLYLQMNSLRAEDTALYYCVRDKYSYAWSYDDFDIWGQGTMVTVSS
B3: TPP-951: PDA2-6GS-172E1-13-6GS-HSA3-His (bispecific antibody)
chain: EVQLVESGGGVVRPGGSLRLSCAASGFTFDDYAMSWVRQAPGKGLEWVSGITWNAGSTGYADSVKGRFTISRDNAKNSLYLQMNSLRAEDTALYYCVRDKYSYAWSYDDFDIWGQGTMVTVSSGGGGSGGGGSGGGGSGGGGSGGGGSGGGGSEVQLVESGGGVVQPGGSLRLSCAASGFTFSNYGMHWVRQAPGKGLEWVAVISNDGNTKTYADSVKGRFTISRDNSKNTLYLQMNSLRAEDTAVYYCAQDETTTVTASYYFDYWGQGTLVTVSSGGGGSGGGGSGGGGSGGGGSGGGGSGGGGSEVQLLESGGGLVKPGGSLRLSCAASGFTVSSYTMNWVRQAPGKGLEWVSSISSSGRYIYYADSVKGRFTISRDNAKNSLYLQMNSLRAEDTAVYYCARDPRMVGNPHEFDIWGQGTMVTVSSAAAHHHHHH
B4: 003BB172-E01-5 (VHH)
VHH: EVQLVESGGGLVQPGGSLRLSCAASGFTFSNYGMHWVRQAPGKRLEWVAVISNDGNTKTYADSVKGRFTISRDNSKNTLYLQMNSLRTEDTAVYYCAQDETTTVTASYYFDYWGQGTLVTVSS
notes: Human VH single domain antibody, monovalent
B5: 003BB172-E01-6 (VHH)
VHH: B4 VHH with R44G, T78M
notes: Human VH single domain antibody, monovalent; also called CD137B
B6: 003BB172-E01-8 (VHH)
VHH: B4 VHH with L11V, R44G
notes: as for B4
B7: 003BB172-E01-12 (VHH)
VHH: B4 VHH with G16R, R44G, T88A
notes: as for B4
B8: 003BB172-E01-11 (VHH)
VHH: B4 VHH with L11V, G16R, R44G
notes: as for B4
B9: 003BB172-E01-10 (VHH)
VHH: B4 VHH with G16R, R44G
notes: as for B4
B10: 003BB172-E01-9 (VHH)
VHH: B4 VHH with R44G, T88A
notes: as for B4
B11: 003BB172-E01-7 (VHH)
VHH: B4 VHH with R44G
notes: Human VH single domain antibody, monovalent; also called CD137C
B12: 003BB172-E01-13 (VHH)
VHH: B4 VHH with L11V, R44G, T88A
notes: Human VH single domain antibody, monovalent; also called CD137D; 172E1-13
B13: TPP-1411 PD138G7(G109D)-1GS-CD137A-1GS-HSA2 (bispecific antibody)
chain: EVQLVESGGGVVRPGGSLRLSCAASGFTFDDYAMSWVRQAPGKGLEWVSGITWNGGSTGYADSVKDRFTISRDNAKNSLYLQMNSLRAEDTALYYCVRDKYSYAWSYDDFDIWGQGTMVTVSSGGGGSEVQLVESGGGLVQPGGSLRLSCAASGFTLSNYWMNWVRQAPGKGLEWVANINQDGSERYYVDSVKGRFTISRDNAKNSLYLQMNSLRAEDTAVYYCARGGEGYGVDHYGLDVSGQGTTVTVSSGGGGSEVQLVESGGGLVKPGGSLRLSCAASGFTFSNYNMNWVRQAPGKGLEWVSSISSAGTHIYYADSVKGRFTISRDNAKNSLYLQMNSLRAEDTAVYYCARDPHSTGWYKDFDYWGQGTLVTVSS
B14: TPP-1410 PD138G7(G109D)-1GS-CD137A-6GS-HSA2 (bispecific antibody)
chain: EVQLVESGGGVVRPGGSLRLSCAASGFTFDDYAMSWVRQAPGKGLEWVSGITWNGGSTGYADSVKDRFTISRDNAKNSLYLQMNSLRAEDTALYYCVRDKYSYAWSYDDFDIWGQGTMVTVSSGGGGSEVQLVESGGGLVQPGGSLRLSCAASGFTLSNYWMNWVRQAPGKGLEWVANINQDGSERYYVDSVKGRFTISRDNAKNSLYLQMNSLRAEDTAVYYCARGGEGYGVDHYGLDVSGQGTTVTVSSGGGGSGGGGSGGGGSGGGGSGGGGSGGGGSEVQLVESGGGLVKPGGSLRLSCAASGFTFSNYNMNWVRQAPGKGLEWVSSISSAGTHIYYADSVKGRFTISRDNAKNSLYLQMNSLRAEDTAVYYCARDPHSTGWYKDFDYWGQGTLVTVSS
B15: TPP-1408 PD138G7(G109D)-1GS-HSA2-1GS-CD137D (bispecific antibody)
chain: EVQLVESGGGVVRPGGSLRLSCAASGFTFDDYAMSWVRQAPGKGLEWVSGITWNGGSTGYADSVKDRFTISRDNAKNSLYLQMNSLRAEDTALYYCVRDKYSYAWSYDDFDIWGQGTMVTVSSGGGGSEVQLVESGGGLVKPGGSLRLSCAASGFTFSNYNMNWVRQAPGKGLEWVSSISSAGTHIYYADSVKGRFTISRDNAKNSLYLQMNSLRAEDTAVYYCARDPHSTGWYKDFDYWGQGTLVTVSSGGGGSEVQLVESGGGVVQPGGSLRLSCAASGFTFSNYGMHWVRQAPGKGLEWVAVISNDGNTKTYADSVKGRFTISRDNSKNTLYLQMNSLRAEDTAVYYCAQDETTTVTASYYFDYWGQGTLVTVSS

Where a chain is given by its changes, count along the chain named. In names and notes the source's numbering stands.

The first test addresses human CD137 expressed on cells (Jurkat human CD137 NF-kB luciferase reporter cells; human CD8+ T cells) (human, UniProt Q07011 24-255). The test is described as follows: cell-based or functional assay.
As for B1, the “Jurkat-CD137/CHO-PD-1 Reporter Assay EC50” value is 43 nM.

Turning to B2, the “Jurkat-CD137/CHO-PD-1 Reporter Assay EC50” value came out at 0.134 nM.

In the case of B3, the “Jurkat-CD137/CHO-PD-1 Reporter Assay EC50” value was found to be 14.1 nM.

For the next test, the target named is T1, human CD137 expressed on CHO cells (human, UniProt Q07011 18-255).
T1 construct: also called CHO huCD137; CHO human CD137 cells
The experiment in a line: FMAT/Mirrorball on CHO huCD137 cells. As for the experimental part: Binding of His-tagged molecules to CHO human CD137, CHO parent and CHO human PD1 cells was assessed using Fluorescence Microvolume Assay Technology (FMAT). All reagents were prepared in FMAT assay buffer (pH 7.4) containing PBS, 0.1% Bovine Serum Albumin, 0.05% Sodium Azide. […] Fluorescence emission was then measured on the TTP Mirrorball plate reader in the FL2 (502 nm-537 nm) and FL5 (677-800 nm) channels following excitation at 488 nm and 640 nm. Data was gated on FL5 perimeter and peak intensity and the FL2 median mean fluorescence intensity of the gated data used for determination of VH binding. Monovalent CD137 specific Humabody® VH, and trispecific molecules with a CD137 binding arm bound to CHO CD137 expressing cells. Trispecific Humabody® VH, with a PD1 binding arm bound to PD1 expressing cells.
In general, EC50 refers to the concentration at which the effect is half-maximal. In the case of B4, the response was half-maximal at 1.29 nM (EC50). That is a single-digit nanomolar value.

In turn, B5 showed an EC50 of 1.08 nM. This EC50 and that of the molecule before are within 1.5-fold of each other.

Take B6: the response was half-maximal at 1.08 nM (EC50). That is a single-digit nanomolar value.

The molecule B7 returned an EC50 of 1.21 nM. The EC50 values of the last two molecules are within 1.5-fold of each other.

On to B8, for which the EC50 was 1.21 nM. In other words, the single-digit nanomolar range.

Regarding B9, the EC50 is 1.22 nM.

In turn, B10 had an EC50 of 0.849 nM. This EC50 and that of the molecule before are within 1.5-fold of each other.

B11 registered an EC50 of 1.28 nM. Compared with the last molecule, the EC50 is about 1.5-fold higher.

The molecule B12 returned an EC50 of 0.954 nM. The EC50 values of the last two molecules are within 1.5-fold of each other.

The target of the next test is T2, Rhesus CD137-Fc tagged protein (rhesus, UniProt H9Z8K9 24-186).
T2 construct: extracellular domain; The Octet paragraph gives no catalogue number; also called rhCD137-Fc
The experiment in a line: BLI (Octet RED384), CD137-Fc on Protein G sensor, 1:1 model. As for the experimental part:
Binding kinetics of purified monovalent VH molecules were measured on a ForteBio Octet RED 384 instrument. Human and Rhesus CD137-Fc tagged protein was diluted to 5 μg/ml in kinetics buffer (0.05% Tween, 1×PBS) and coupled to Protein G biosensors (ForteBio cat no. 18-5082) via the Fc tag. VH were serially diluted (typically 1:2 dilution series starting with 200 nM, VH at the highest concentration) and binding to the CD137-Fc-coupled Protein G biosensors measured. Binding kinetics were determined from the (blank subtracted) sensor gram trace using 1:1 binding models and ForteBio Octet Data Analysis 9.0 software. Example kinetic and binding affinity data obtained is shown Table 18 (monovalent VH).
(BLI is a label-free optical method that tracks binding on a fibre tip over time.)
For orientation: Kd means the constant that tells how readily two partners part at equilibrium. What is called koff is a measure of how fast the partners let go of each other. For orientation: kon means a measure of how fast the partners come together. In turn, B4 returned a Kd of 11.5 nM, a koff of 0.00164 s⁻¹ and a kon of 142000 M⁻¹ s⁻¹.

Consider B5, for which the Kd turned out to be 39 nM, the koff turned out to be 0.00287 s⁻¹ and the kon is 73600 M⁻¹ s⁻¹.

On to B6, for which binding was put at a Kd of 41.4 nM, the koff stood at 0.00269 s⁻¹ and the kon was found to be 65000 M⁻¹ s⁻¹.

As to B7, the Kd turned out to be 38.6 nM, the koff was 0.0023 s⁻¹ and the kon was 59700 M⁻¹ s⁻¹.

Take B8: the Kd is 33.1 nM, the koff stood at 0.0024 s⁻¹ and the kon is 72500 M⁻¹ s⁻¹.

B9: binding was characterised by a dissociation constant (Kd) of 36.9 nM, the off-rate (koff) turned out to be 0.00249 s⁻¹ and the kon was determined as 67400 M⁻¹ s⁻¹.

B10 had a Kd of 23 nM, a koff of 0.00235 s⁻¹ and a kon of 102000 M⁻¹ s⁻¹.

With B11, the Kd came out at 40.7 nM, the koff was determined as 0.00233 s⁻¹ and the kon was determined as 57300 M⁻¹ s⁻¹.

In turn, B12 came in with a Kd of 22.8 nM, a koff of 0.00253 s⁻¹ and a kon of 111000 M⁻¹ s⁻¹.

In the next test the target is T3, recombinant Fc-tagged ectodomain of human CD137 (Acro Biosystems 41B-H5258) (human, UniProt Q07011 24-186).
T3 construct: Bought protein; not shown: Fc tag
The experiment in a line: SPR, Biacore 8K, single-cycle kinetics; Fc-tagged ectodomain captured on Protein G chip; 1:1 model. As for the experimental part:
(§1) Binding of Humabody® VH constructs was measured using a single-cycle kinetics method using the BIAcore 8K instrument with 90 second sample injections with a sample concentration range of low nanomolar to high nanomolar. […] The Protein G sensor surface was regenerated with a 20 second injection of 10 mM Glycine buffer, pH 1.5 (GE Healthcare BR100354). Data were analysed using a 1:1 binding model in Biacore Insight Evaluation software, including Humabody® VH constructs with two PD-1 arms.
On the technique in general: In SPR one partner is held on a chip, and binding of the other changes the refractive index at the surface.
With B13, the Kd is 1.93 nM, the koff worked out at 0.000208 s⁻¹ and the kon was 108000 M⁻¹ s⁻¹.

B2: the Kd was 2.02 nM, the koff worked out at 0.000307 s⁻¹ and the kon is 152000 M⁻¹ s⁻¹.

Regarding B14, the Kd was 1.47 nM, the koff was 0.000121 s⁻¹ and the kon came to 81800 M⁻¹ s⁻¹.

For B15, the Kd stood at 95.1 nM, the koff stood at 0.00383 s⁻¹ and the kon was 40300 M⁻¹ s⁻¹.

For a further test, the target named is T4, recombinant Fc-tagged ectodomain of human PD1 (Acro Biosystems PD1-H5257) (human, UniProt Q15116 25-170).
T4 construct: Bought protein; not shown: Fc tag
Described as above. The method, then:
as §1
For B13, the Kd stood at 4.98 nM, the off-rate constant (koff) was determined as 0.00267 s⁻¹ and the kon worked out at 537000 M⁻¹ s⁻¹.

As to B2, the Kd is 4.16 nM, the koff came to 0.00241 s⁻¹ and the kon was 580000 M⁻¹ s⁻¹.

Consider B14, for which the Kd stood at 7.57 nM, the koff stood at 0.00224 s⁻¹ and the kon was 296000 M⁻¹ s⁻¹.

Turning to B15, the Kd worked out at 4.45 nM, the koff was found to be 0.00113 s⁻¹ and the kon turned out to be 255000 M⁻¹ s⁻¹.
